Assay results reported in patent US6673915.

Target: CC CKR2B stably expressed on HEK-293 cells (Example 10A) (human) (UniProt P41597)
Assay: cell-based or functional assay

recombinant human MCP-4 with the mature N-terminal Gln (PeproTech), Q99616 24-98 (ligand), sequence (Q99616 24-98): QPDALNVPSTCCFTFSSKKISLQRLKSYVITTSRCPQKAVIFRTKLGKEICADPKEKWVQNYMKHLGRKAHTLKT
CC CKR2B stably expressed on HEK-293 cells (Example 10A) (human), sequence (P41597 whole entry): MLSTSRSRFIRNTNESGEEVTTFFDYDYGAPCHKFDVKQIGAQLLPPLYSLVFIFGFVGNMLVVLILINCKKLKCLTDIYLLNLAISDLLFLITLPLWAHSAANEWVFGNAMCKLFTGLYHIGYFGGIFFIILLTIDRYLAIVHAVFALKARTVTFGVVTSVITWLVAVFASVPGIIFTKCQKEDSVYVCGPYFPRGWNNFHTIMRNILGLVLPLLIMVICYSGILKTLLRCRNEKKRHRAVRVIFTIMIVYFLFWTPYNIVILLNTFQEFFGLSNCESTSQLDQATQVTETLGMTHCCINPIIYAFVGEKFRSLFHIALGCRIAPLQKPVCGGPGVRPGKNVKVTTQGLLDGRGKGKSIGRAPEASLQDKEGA

**Q.** “recombinant human MCP-4 with the mature N-terminal Gln (PeproTech), Q99616 24-98 (ligand)” was tested. Which half-maximal effective concentration of calcium flux did it give?
**A.** 15 nM

**Q.** And the saturation of calcium flux response?
**A.** 100 nM
